# From patent US20070098715A1 (published 2007)
# Changes are numbered by the printed parent chain.
# B1: Ten-M2-179 (antibody, IgG2, V domains shown)
# VH: QVQLVESGGGVVQPGRSLRLSCAASGFTFSSYGMHWVRQAPGKGLEWVAFIWYDGSNKYYADSVKGRFTISRDNSKNTLYLQMNSLRAEDTAVYYCARDGSSGWYFFDYWGQGTLVTVSS
# VL: DIVMTQTPLSLSVTPGQPASISCKSSQSLLHSDRQTYLFWYLQKPGQPPQLLIYEVSNRFSGVPDRFSGSGSGTDFTLKISRVEAEDVGVYYCMQSIQLPPTFGPGTKVDIK
# notes: Fully human mAb from IgG2 kappa XenoMouse (B cell clone); also called Mab179
# B2: Ten-M2-213 (antibody, IgG2, V domains shown)
# VH: QVQLVQSGAEVKKPGASVKVSCKASGYTFTNYDINWVRQATGQGLEWMGWMNPNSGNTGYAQKFQGRVTMTRNTSIRTAYMELSSLRSEDTAVYYCARGPGGSFYYYYGMDVWGQGTTVTVSS
# VL: DIQMTQSPSSLSASVGDRVTITCRASQSISSYLNWYQQKPGKAPNLLIYTASSLQSGVPSRFSGSGSGTVFTLTISSLQPEDFATYYCQQSSSTPFTFGPGTKVDFK
# notes: Fully human mAb from IgG2 kappa XenoMouse (B cell clone); also called Mab 213
# B3: Ten-M2-120 (antibody, V domains shown)
# VH: QVQLVESGGGVVQPGRSLRLSCAASGFTFSSYGMHWVRQAPGKGLEWVAVLWYDGSKKFYADSVKGRFTISRDNSKNTLYLQMNSLRAEDTALYYCARGPWNYYYYGMDVWGQGTTVTVSS
# VL: EIVLTQSPGTLSLSPGERATLSCRASQSVISSYLAWYQQKPGQAPRLLIYNASNRATGIPDRFSGSGSGTDFTLTISRLEPEDFAVYYCQQYGSSPITFGQGTRLEIK
# notes: also called Mab120
# B4: Ten-M2-140 (antibody, IgG2, V domains shown)
# VH: B3 VH with V2E, Y32H, V50I, L51I, Y80S, L93V
# VL: B3 VL with L21F, S32N, A52T, N54S, D61G, S66G, S77T
# notes: Fully human mAb from IgG2 kappa XenoMouse (B cell clone); also called Mab140; anti-Ten-M2 monoclonal antibody clone 140
# B5: Ten-M2-188 (antibody, IgG2, V domains shown)
# VH: QVQLVQSGAEVKKPGASVKVSCKASGYTFTGYYMHWVRQAPGQGLEWMGWINPNSGGTNSAQRFQGRVTMTRDTSIYTAYMELSRLRSDDTAVYYCAREYRSGRYYNGMDVWGQGTTVTVSS
# VL: DIQLTQSPSSLSASVGDRVTITCRASQDISNYLAWYQQKPGKVPKLLIYAASTLQSGVPSRFSGSGSGTDFTLTISSLQPEDIATYSCQKYSSTPFTFGPGTKVDIK
# notes: Fully human mAb from IgG2 kappa XenoMouse (B cell clone)
# B6: Ten-M2-199 (antibody, IgG2, V domains shown)
# VH: QVQLVQSGAEVKKPGASVKVSCKASGYTFTNYDINWLRQASGQGLEWMGWMNPDSGNTGYAQRFQGRVTMTRDTSISTAYMELSSLRSEDTAVYYCARYISSLHYYYYGMDVWGQGTTVTVSS
# VL: DIQMTQSPSSLSASVGDRVTITCRASQSINSYLNWYQQKPGKAPRLLIYAASNLQSGVPSRFSGSGSGTDFTLTISSLQPEDFSTYYCQQSHNTPLTFGGGTKVEIK
# notes: Fully human mAb from IgG2 kappa XenoMouse (B cell clone); also called Mab199
# B7: Ten-M2-8.1 (antibody, IgG2, V domains shown)
# VH: QVQLQQWGAGLLKPSETLSLTCAVYGGSFSHYYWSWIRQPPGKGLEWIGEINHSGSTNYNPSLKSRVTISVDTSKNQFSLKLSSVTAADTAVYYCARDITMVRGLGGMDVWGQGTTVTVSS
# VL: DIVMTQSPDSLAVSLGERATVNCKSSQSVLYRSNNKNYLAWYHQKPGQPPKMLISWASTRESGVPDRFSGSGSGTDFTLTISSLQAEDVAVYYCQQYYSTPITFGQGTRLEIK
# notes: Hybridoma clone from IgG2 kappa XenoMouse; tested as hybridoma supernatant
# B8: Ten-M2-7.2.1 (antibody, IgG2, V domains shown)
# VH: QVQLQESGPGLVKPSETLSLTCTVSGGSISSYYWSWIRQPPGKGLEWIGYIYYSGNTNYNPSLKSRVTISVDTSKNQFSLKLSSVTAADTAVYYCARDIVVVPAARDYDYYYGMDVWGQGTTVTVSS
# VL: EIVLTQFPGTLSLSPGESAPLSCRASQSVSSIDLVWYQQKPGQAPRLLIYGASSRATGIPDRFSVSGSGTDFTLTISRLEPEDFAVYYCQQYGSSPFTFGPGTKVDIK
# notes: as for B7
# B9: Ten-M2-7.1.1 (antibody, IgG2, V domains shown)
# VH: QVQLVESGGGVVQPGRSLRLSCAASGFTFSNYGMHWVRQAPGKGLEWVAVIPFDGSNKYYADSVKGRFTISRDNSKNTLYLQTNSLRAEDTAVYYCARNWGYFDYWGQGTLVTVSS
# VL: DIVMTQSPLSLPVTPGEPASISCRTSQSLLQSNGYNYLDWYLQKPGQSPQLLIYLGSSRASGVPDRFSGSGSGTDFTLKISRVEAEDVGVYYCMQALQTLTFGGGTKVEIK
# notes: as for B7
# Biological target: T1, Ten-M2 endogenously expressed on human cancer cell lines (SNB-19 and others) (human, UniProt Q9NT68 1-2774)
# Test: cell-based or functional assay
Binder,% Internalization (SNB-19 cells),"Internalized Fluorescence (SNB-19 cells, 37° C. 30 min, glutathione-resistant)"
B1,29%,13.6
B2,46%,40.2
B3,40%,26.4
B4,44%,36.5
B5,48%,22.1
B6,46%,32.9

# Biological target: T2, Ten-M2 antigen (BiaCore analyte) (UniProt Q9NT68 399-2774)
# Test: not given
Binder,kon,Kd,koff
B1,16300 M⁻¹ s⁻¹,–,–
B2,29000 M⁻¹ s⁻¹,1.1 nM,3.22e-05 s⁻¹
B3,26200 M⁻¹ s⁻¹,–,0.000465 s⁻¹
B4,40100 M⁻¹ s⁻¹,–,0.000605 s⁻¹
B6,23300 M⁻¹ s⁻¹,–,–

# Biological target: T1, Ten-M2 endogenously expressed on human …
# Test: flow cytometry on SNB-19 cells at 4° C., Alexa647 anti-human IgG secondary
row,Binder,Total Bound Fluorescence
1,B1,89.6
2,B2,79.7
3,B3,58.4
4,B4,75.3
5,B5,41.6
6,B6,64.8

# Biological target: T2, Ten-M2 antigen (BiaCore analyte)
# Test: not given
# Remark: another data set of the same source
row,Binder,Kd
1,B3,18 nM
2,B4,15 nM

# Biological target: T3, soluble Ten-M2 antigen (FIG. 1B), Ten-M2 amino acids 400-2733 with 6xHis-V5 tag (human, UniProt Q9NT68 399-2774)
# T3 construct: also called Curagen 007-V5HIS; soluble Ten-M2 (Cur007) ECD
# Test: ELISA, plate coated with soluble Ten-M2 antigen, hybridoma supernatant
row,Binder,binding result
1,B7,binds
2,B8,binds
3,B9,binds

# Biological target: T2, Ten-M2 antigen (BiaCore analyte)
# Test: not given
# Remark: another data set of the same source
row,Binder,koff
1,B1,≤ 1e-05 s⁻¹
2,B6,≤ 1e-06 s⁻¹

# Biological target: T2, Ten-M2 antigen (BiaCore analyte)
# Test: not given
# Remark: another data set of the same source
row,Binder,Kd
1,B1,≤ 0.61 nM
2,B6,≤ 0.043 nM
